Results: US20260226133A1 (ANGELES THERAPEUTICS, published 2026)

Legend:
TAJ/TNFRSF19 = biological target: T1, TAJ/TNFRSF19 (UniProt Q9NS68 30-423, limits assumed); assay: Malibu-Glo assay; NLuc fusion supernatant on LNCaP cells, control 293FT cells
T1 construct: whole, on cells
T1 sequence (looked up): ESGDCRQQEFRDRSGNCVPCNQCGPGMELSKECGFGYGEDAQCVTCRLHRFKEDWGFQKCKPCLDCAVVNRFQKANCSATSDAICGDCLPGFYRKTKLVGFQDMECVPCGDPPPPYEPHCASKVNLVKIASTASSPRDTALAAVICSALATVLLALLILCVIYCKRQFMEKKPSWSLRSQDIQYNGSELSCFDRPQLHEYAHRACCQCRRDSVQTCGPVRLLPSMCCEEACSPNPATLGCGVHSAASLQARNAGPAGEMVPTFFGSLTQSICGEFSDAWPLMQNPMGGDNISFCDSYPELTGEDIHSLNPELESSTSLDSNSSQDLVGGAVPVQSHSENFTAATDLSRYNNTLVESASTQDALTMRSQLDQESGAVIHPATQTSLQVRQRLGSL

DLL3 = biological target: T2, DLL3 (UniProt Q9NYJ7 27-618, limits assumed); assay: Malibu-Glo assay; NLuc fusion supernatant on NCI-H82 cells, control K562 cells
T2 construct: whole, on cells
T2 sequence (looked up): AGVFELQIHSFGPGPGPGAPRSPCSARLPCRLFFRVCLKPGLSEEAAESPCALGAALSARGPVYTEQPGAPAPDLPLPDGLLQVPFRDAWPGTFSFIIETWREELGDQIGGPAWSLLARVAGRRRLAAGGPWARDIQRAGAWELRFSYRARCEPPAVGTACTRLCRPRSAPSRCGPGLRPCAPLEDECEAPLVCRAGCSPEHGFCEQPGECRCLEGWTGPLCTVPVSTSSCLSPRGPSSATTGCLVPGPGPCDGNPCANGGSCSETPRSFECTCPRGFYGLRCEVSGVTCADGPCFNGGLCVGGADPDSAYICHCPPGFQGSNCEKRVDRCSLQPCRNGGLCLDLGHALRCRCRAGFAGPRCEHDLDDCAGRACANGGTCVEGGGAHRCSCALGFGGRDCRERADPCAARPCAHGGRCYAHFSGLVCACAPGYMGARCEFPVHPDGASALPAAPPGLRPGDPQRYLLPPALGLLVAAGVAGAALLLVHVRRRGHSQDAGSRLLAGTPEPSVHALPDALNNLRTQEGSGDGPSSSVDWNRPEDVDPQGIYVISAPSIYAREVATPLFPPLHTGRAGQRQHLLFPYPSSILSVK

BCMA [1] = biological target: T3, BCMA (UniProt Q02223 1-184, limits assumed); assay: Malibu-Glo assay; NLuc fusion supernatant on L363 cells, control Jurkat cells
T3 construct: whole, on cells; also called TNF receptor family member B cell maturation (BCMA)
T3 sequence (looked up): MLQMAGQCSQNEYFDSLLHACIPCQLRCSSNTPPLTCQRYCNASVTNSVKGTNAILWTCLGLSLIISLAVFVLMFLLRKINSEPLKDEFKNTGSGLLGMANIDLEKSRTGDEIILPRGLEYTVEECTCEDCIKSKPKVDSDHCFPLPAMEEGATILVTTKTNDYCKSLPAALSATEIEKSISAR

BCMA [2] = biological target: T3, BCMA; assay: Malibu-Glo assay; NLuc fusion supernatant on H929 cells, control K562 cells
CD19 = biological target: T4, CD19 (UniProt P15391 20-556, limits assumed); assay: Malibu-Glo assay; NLuc fusion supernatant on RAJI cells, control Jurkat cells
T4 construct: whole, on cells
T4 sequence (looked up): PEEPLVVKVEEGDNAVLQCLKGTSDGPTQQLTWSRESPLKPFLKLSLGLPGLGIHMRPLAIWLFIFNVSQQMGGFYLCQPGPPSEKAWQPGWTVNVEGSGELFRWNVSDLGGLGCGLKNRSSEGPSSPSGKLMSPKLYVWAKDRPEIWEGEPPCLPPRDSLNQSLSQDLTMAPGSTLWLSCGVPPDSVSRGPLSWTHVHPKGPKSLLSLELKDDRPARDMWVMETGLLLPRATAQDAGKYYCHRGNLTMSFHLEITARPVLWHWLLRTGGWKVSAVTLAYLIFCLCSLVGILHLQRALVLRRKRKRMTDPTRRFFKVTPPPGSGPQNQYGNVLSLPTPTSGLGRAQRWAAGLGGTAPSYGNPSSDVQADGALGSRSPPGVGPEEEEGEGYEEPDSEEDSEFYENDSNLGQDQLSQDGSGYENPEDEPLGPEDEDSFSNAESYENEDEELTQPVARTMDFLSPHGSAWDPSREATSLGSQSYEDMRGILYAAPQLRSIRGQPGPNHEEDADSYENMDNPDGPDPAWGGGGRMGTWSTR

CD20 = biological target: T5, CD20 (UniProt P11836 1-297, limits assumed); assay: Malibu-Glo assay; NLuc fusion supernatant on RAJI cells, control K562 cells
T5 construct: whole, on cells
T5 sequence (looked up): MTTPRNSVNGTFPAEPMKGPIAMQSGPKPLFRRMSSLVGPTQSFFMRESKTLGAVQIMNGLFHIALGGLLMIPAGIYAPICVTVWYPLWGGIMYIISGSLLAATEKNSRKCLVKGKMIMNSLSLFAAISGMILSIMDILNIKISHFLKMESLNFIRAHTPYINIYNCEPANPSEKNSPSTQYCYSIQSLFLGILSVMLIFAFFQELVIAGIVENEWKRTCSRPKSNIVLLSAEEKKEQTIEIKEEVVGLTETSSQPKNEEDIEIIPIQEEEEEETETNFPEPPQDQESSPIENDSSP

STEAP2 = biological target: T6, STEAP2 (UniProt Q8NFT2 1-490, limits assumed); assay: Malibu-Glo assay; NLuc fusion supernatant on LNCaP cells, control K562 cells
T6 construct: whole, on cells
T6 sequence (looked up): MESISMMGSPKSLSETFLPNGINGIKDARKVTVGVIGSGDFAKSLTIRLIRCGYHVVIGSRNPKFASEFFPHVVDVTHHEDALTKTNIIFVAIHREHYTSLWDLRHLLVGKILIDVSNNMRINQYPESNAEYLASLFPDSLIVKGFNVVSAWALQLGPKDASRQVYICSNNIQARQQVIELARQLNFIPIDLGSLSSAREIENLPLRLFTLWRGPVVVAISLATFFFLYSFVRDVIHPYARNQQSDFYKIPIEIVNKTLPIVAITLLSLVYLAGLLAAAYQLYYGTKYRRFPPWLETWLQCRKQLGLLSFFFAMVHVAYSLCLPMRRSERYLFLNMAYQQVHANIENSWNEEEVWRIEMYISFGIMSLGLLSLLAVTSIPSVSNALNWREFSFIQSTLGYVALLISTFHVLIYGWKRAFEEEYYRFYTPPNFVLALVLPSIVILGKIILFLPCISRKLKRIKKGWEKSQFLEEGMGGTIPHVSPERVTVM

CD33 = biological target: T7, CD33 (UniProt P20138 18-364, limits assumed); assay: Malibu-Glo assay; NLuc fusion supernatant on HL60 cells, control Jurkat cells
T7 construct: whole, on cells
T7 sequence (P20138 18-364 limits assumed): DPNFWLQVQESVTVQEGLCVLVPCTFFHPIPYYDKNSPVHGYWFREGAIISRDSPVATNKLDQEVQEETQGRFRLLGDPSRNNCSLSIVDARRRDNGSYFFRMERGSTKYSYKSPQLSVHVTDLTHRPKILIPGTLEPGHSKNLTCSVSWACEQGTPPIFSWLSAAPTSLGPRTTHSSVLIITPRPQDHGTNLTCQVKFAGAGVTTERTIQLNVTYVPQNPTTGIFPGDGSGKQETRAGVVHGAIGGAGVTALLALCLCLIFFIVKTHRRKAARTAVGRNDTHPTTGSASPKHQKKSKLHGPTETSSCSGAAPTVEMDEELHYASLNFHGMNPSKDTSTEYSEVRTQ

IL23R = biological target: T8, IL23R (UniProt Q5VWK5 24-629, limits assumed); assay: Malibu-Glo assay; NLuc fusion supernatant on L363 cells, control K562 cells
T8 construct: whole, on cells
T8 sequence (looked up): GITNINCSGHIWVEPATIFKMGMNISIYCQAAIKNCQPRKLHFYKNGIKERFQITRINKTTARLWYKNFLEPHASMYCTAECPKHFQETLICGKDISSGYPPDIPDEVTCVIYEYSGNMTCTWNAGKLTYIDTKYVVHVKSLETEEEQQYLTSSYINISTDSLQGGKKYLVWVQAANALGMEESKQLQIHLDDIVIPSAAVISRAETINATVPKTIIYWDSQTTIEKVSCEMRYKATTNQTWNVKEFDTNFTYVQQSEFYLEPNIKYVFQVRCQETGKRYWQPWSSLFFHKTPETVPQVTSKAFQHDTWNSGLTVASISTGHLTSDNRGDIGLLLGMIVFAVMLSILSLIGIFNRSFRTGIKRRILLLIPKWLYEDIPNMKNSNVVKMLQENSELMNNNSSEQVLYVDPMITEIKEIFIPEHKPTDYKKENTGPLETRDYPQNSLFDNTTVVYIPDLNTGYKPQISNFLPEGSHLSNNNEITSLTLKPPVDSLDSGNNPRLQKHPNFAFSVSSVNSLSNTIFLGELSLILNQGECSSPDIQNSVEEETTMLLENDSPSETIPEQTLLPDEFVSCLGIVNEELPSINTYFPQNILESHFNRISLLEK

MSLN = biological target: T9, MSLN (UniProt Q13421 37-598, limits assumed); assay: Malibu-Glo assay; NLuc fusion supernatant on SKOV3 cells, control Jurkat cells
T9 construct: whole, on cells; also called Mesothelin
T9 sequence (Q13421 other isoform, or with tags, fused parts or gaps limits assumed): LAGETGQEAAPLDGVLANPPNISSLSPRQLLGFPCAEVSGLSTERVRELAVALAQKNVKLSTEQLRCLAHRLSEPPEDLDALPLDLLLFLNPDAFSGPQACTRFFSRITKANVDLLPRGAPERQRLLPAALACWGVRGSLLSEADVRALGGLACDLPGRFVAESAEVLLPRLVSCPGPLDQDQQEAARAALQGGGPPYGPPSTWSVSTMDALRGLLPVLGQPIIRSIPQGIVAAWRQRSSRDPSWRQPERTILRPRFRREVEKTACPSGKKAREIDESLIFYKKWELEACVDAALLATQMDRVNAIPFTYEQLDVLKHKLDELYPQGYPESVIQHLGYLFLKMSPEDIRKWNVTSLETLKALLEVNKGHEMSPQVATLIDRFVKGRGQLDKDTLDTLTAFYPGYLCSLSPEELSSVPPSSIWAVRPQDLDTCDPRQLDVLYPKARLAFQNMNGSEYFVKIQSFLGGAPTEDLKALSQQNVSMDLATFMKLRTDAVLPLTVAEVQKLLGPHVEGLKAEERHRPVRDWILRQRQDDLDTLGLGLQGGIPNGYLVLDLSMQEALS

B1: KN5-USC1-R3D scFv (TAJ), NLuc fusion (scFv)
chain: QIVLTQSPAIMSASPGEKVTMTCSASSSVSFMHWYQQKSGTSPKRWIYDTSTLASGVPARFGGSGSGTSYSLTISSMEAEDAATYYCQQWSSNPLTFGAGTKLELKRGGGGSGGGGSGGGGSQVQLQQSGPELVKPGASVRISCKASGYTFTSYYIHWVKQRPGQGLEWIGWIYPGNLNTKYNEKFKGKATLTADKSSSTAYMQLSSLTSEDSAVYFCARYDWYFDVWGAGTTVTVSS
TAJ/TNFRSF19
  Fold Change (Luc activity, target cell line over control cell line): 4.35 fold

B2: DLL3-USC5 vHH (DLL3), NLuc fusion (VHH)
VHH: QVQLVESGGGVVQPGGSLRLSCAASFSGYGVSTMAWFRQAPGKGLEGVAAITVGSGNTYYADSVKGRFTISRDNSKNTVYLQMNSLRAEDTAMYYCAVGWLSGGSWHVPGRYNYWGQGTLVTVSS
DLL3
  Fold Change (Luc activity, target cell line over control cell line): 1.7 fold

B3: hu-E59D-US3 vHH (BCMA), NLuc fusion (VHH)
VHH: EVQLVESGGGLVQPGGSLRLSCAASGRTFTMGWFRQAPGKGREFVAAISLSPTLAYYADSVKGRFTISRDNSKNTVVLQMNSLRAEDTAVYYCAADRKSVMSIRPDYWGQGTQVTVSS
BCMA [1]
  Fold Change (Luc activity, target cell line over control cell line): 2 fold

B4: E59D-USC1 vHH (BCMA), NLuc fusion (VHH)
VHH: QVQLVESGGGLVQPGGSLRLSCAASGRTFTMGWYRQAPGKGLEFVSAISLSPTLAYYADSVKGRFTISRDNSKNTVVLQMNSLRAEDTALYYCAADRKSVMSIRPDYWGQGTLVTVSS
BCMA [2]
  Fold Change (Luc activity, target cell line over control cell line): 2.57 fold

B5: huE59D-AT2 vHH (BCMA), NLuc fusion (VHH)
VHH: EVQLVESGGGLVQPGGSLRLSCAASGRTFTMGWYRQAPGKEREFVAAISLSPTLAYYADSVKGRFTISRDNSKNTVVLQMNSLRAEDTALYYCAADRKSVMSIRPDYWGQGTLVTVSS
BCMA [2]
  Fold Change (Luc activity, target cell line over control cell line): 2.99 fold

B6: hu-mROO5-1 scFv (CD19), NLuc fusion (scFv)
chain: DIQMTQSPSSLSASVGDRVTITCKASDHINNWLAWYQQKPGQAPKLLIYGATTLETGVPSRFSGSGSGTDYTLTISSLQPEDFATYYCQQSWNTPWTFGQGTKLEIKRGGGGSGGGGSGGGGSQVQLQQPGAELVKPGASVKMSCKASGYAFSSYWINWMKQKPGQGLEWIGQIYPGDGDTNYNGKFKGRATLTADTSSSTAYMQLSSLTSEDSAVYFCARSITTVVGCAMDYWGQGTSVTVSS
CD19
  Fold Change (Luc activity, target cell line over control cell line): 933 fold

B7: huCD20-AT1 vHH (CD20), NLuc fusion (VHH)
VHH: EVQLLESGGGLVQPGGSLRLSCAASGRTFSMGWYRQAPGKGLEFVSAITYSGGSPYYADSVKGRFTISRDNSKNTVYLQMNSLRAEDTAVYYCAANPTYGSDWNAENWGQGTLVTVSS
CD20
  Fold Change (Luc activity, target cell line over control cell line): 15.6 fold

B8: STEAP2-RGN-1162-USC1 scFv (STEAP2), NLuc fusion (scFv)
chain: QVQLQQSGPGLVKPSQTLSLTCAISGDSVSSNRAAWNWIRQSPSRGLQWLGRTYYRSKWYNDYAVSLRSRITINPVTSKNQVALHMNSVTPEDTAVYYCARAGIVVVPGPETFYYYDHGLDVWGQGTTVTVSSGGGGSGGGGSGGGGSDIQMTQSPSSLSASVGDRVTITCRASQSIRNYLNWYQQKPGKAPELLIHAASSLQSGVPSRFSGSGSGTDFTLTISSLQPEDFASYYCQQSYSAPPITFGQGTRLEIK
STEAP2
  Fold Change (Luc activity, target cell line over control cell line): 27.4 fold

B9: AT264-S30G vHH (CD33), NLuc fusion (VHH)
VHH: EVQLVESGGGSVQAGGSLRLSCAASGYTYGINCMGWFRQAPGKEREGVAVISTGGGRTDYRDSVKGRFTISQDNAKNTVYLQMNSLKPEDTAMYYCAGKTTYPGYGCGLGRSAYNYWGQGTQVTVSS
CD33
  Fold Change (Luc activity, target cell line over control cell line): 28 fold

B10: IL23R-SANG-11 scFv (IL23R), NLuc fusion (scFv)
chain: DIQMTQSPSSLSASVGDRVTITCQASENIYSFLAWYQQKPGKAPKLLIYSASKLAAGVPSRFSGSGSGTDFTLTISSLQPEDFATYYCQQTNRYSNPDIYNVFGQGTKLTVLGGGGGSGGGGSGGGGSEVQLVESGGGLVQPGGSLRLSCAASGIDFNSNYYMCWVRQAPGKGLEWIGCIYVGSHVNTYYANWAKGRFTISRDNSKNTVYLQMNSLRAEDTAVYYCATSGSSVLYFKFWGQGTLVTVSS
IL23R
  Fold Change (Luc activity, target cell line over control cell line): 2.37 fold

B11: AT2-K65R vHH (MSLN), NLuc fusion (VHH)
VHH: QVQLVESGGGVVQPGGSLRLSCAASGLSFSTYTVAWFRQAPGKGLEGVAAIPYTSQHMVYTDSVRGRFTISRDNSKNTLYLQMNSLRAEDTAVYYCATDRRPGTSMLAINGYNRWGQGTTVTVSS
MSLN
  Fold Change (Luc activity, target cell line over control cell line): 11.5 fold
